Assay results reported in US20150203577A1 (Chugai, published 2015).
Each block holds one binder with its values, some of them ahead of it.

Experiments:
[1] = biological target: T1, mouse FcγRII extracellular domain, C-terminally His-tagged (mouse, UniProt P08101 30-210); assay: SPR Biacore T200, antibody captured on Protein L
T1 construct: the whole entry is named; also called mFcγRII; mFcgRII
T1 sequence: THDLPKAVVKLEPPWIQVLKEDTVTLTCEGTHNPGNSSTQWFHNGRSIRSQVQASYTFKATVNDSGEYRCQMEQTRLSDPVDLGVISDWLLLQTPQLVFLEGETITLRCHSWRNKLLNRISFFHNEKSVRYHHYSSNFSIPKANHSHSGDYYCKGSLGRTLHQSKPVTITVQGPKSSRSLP
Method: (§1) As for alterations, “X000Z” represents the substitution of amino acid X at EU numbering position 000 by amino acid Z. In this context, X and Z represent the one-letter codes of the amino acid residues.
(§2) Each altered antibody was analyzed for its interaction with each Fcγ receptor prepared above using Biacore T100 (GE Healthcare Japan Corp.), Biacore T200 (GE Healthcare Japan Corp.), Biacore A100, or Biacore 4000. The running buffer used was HBS-EP+ (GE Healthcare Japan Corp.). The assay temperature was set to 25° C. The sensor chips used were chips prepared by immobilizing Protein L (ACTIGEN or BioVision) onto Series S Sensor Chip CM5 (GE Healthcare Japan Corp.) or Series S Sensor Chip CM4 (GE Healthcare Japan Corp.) by the amine coupling method.
(§3) In order to calculate the KD value of each altered antibody for FcγR, kinetic analysis was conducted according to the following method: first, the antibody of interest was captured onto any of these chips and allowed to interact with mFcγR diluted with a running buffer. For the obtained sensorgram, the assay results were globally fit into the 1:1 Langmuir binding model using Biacore Evaluation Software to calculate an association rate constant ka (L/mol/s) and a dissociation rate constant kd (1/s). From these values, the dissociation constant KD (mol/L) was calculated.

[2] = biological target: T2, mouse FcγRIII extracellular domain, C-terminally His-tagged (mouse, UniProt P08508 31-215); assay: SPR Biacore T200, antibody captured on Protein L
T2 construct: the whole entry is named; also called mFcγRIII; mFcgRIII
T2 chain: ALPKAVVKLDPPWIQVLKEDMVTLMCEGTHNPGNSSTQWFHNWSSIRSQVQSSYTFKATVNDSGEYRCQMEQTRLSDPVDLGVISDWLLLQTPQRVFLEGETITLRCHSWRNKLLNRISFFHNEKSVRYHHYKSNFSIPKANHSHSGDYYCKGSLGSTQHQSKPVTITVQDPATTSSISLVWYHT
Method: as §1, §2, §3

[3] = biological target: T1, mouse FcγRII extracellular domain, …; assay: SPR Biacore T200, KD ratio
Method: as §1, §2, §3

[4] = biological target: T2, mouse FcγRIII extracellular domain, …; assay: SPR Biacore T200, KD ratio
Method: as §1, §2, §3

[5] = biological target: T3, mouse FcγRII (mouse, UniProt P08101 30-210); assay: told of the L104-mk1 form; SPR (Table 28) was run on the MRAL-k0 form
T3 construct: also called mFcγRII; mFcgRII
T3 sequence: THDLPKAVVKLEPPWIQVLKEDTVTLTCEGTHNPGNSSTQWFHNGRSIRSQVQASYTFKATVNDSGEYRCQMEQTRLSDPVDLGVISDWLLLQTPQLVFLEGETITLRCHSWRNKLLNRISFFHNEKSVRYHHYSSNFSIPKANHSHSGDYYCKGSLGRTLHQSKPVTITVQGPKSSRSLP

[6] = biological target: T4, mouse FcγRII extracellular domain, C-terminal His tag (mouse, UniProt P08101 30-210); assay: SPR (Biacore T200); KD of H237-mIgG1/MRAL-k0 / KD of variant
T4 construct: Whole entry named; also called mFcγRII; mFcgRII
T4 sequence: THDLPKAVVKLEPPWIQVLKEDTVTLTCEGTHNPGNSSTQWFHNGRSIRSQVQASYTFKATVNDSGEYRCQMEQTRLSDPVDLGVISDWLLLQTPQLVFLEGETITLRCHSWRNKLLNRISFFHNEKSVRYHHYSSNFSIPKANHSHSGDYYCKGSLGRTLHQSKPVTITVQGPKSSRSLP
Method: as §2, §3

[7] = biological target: T5, mouse FcγRIII extracellular domain, C-terminal His tag (mouse, UniProt P08508 31-215); assay: SPR (Biacore T200)
T5 construct: Whole entry named; also called mFcγRIII; mFcgRIII
T5 chain: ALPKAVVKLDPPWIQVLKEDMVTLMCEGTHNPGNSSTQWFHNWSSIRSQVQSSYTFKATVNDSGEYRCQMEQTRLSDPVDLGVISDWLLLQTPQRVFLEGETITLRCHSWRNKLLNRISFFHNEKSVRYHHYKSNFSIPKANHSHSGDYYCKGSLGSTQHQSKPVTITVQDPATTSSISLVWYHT

- Kd [1]: 1.33 nM
- Kd [2]: 6.4 nM
- relative mFcγRII-binding activity (mIgG1 = 1) [3]: 158 fold
- relative mFcγRIII-binding activity (mIgG1 = 1) [4]: 44 fold
B1: H237-mF46/MRAL-k0 (antibody, mouse IgG1, kappa)
heavy: QVQLQESGPGLVKPSETLSLTCAVSGHSISHDHAWSWVRQPPGEGLEWIGFISYSGITNYNPSLQGRVTISRDNSKNTLYLQMNSLRAEDTAVYYCARSLARTTAMDYWGEGTLVTVSSAKTTPPSVYPLAPGSAAQTNSMVTLGCLVKGYFPEPVTVTWNSGSLSSGVHTFPAVLQSDLYTLSSSVTVPSSTWPSETVTCNVAHPASSTKVDKKIVPRDCGCKPCICTVPEVSDVFIFPPKPKDVLTITLTPKVTCVVVDISKDDPEVQFSWFVDDVEVHTAQTQPREEQFNSTFRSVSELPIMHQDWLNGKEFKCRVNSADFPAPIEKTISKTKGRPKAPQVYTIPPPKEQMAKDKVSLTCMITDFFPEDITVEWQWNGQPAENYKNTQPIMDTDGSYFVYSKLNVQKSNWEAGNTFTCSVLHEGLHNHHTEKSLSHSPGK
light: not shown
notes: S239D/A327D (EU) against H237-mIgG1; copies: 2 + 2

- relative mFcγRII-binding activity (mIgG1 = 1) [6]: 0.3 fold
- binding result [7]: no binding
B4: H237-MB879/MRAL-k0 (antibody, mouse IgG1, kappa)
heavy: QVQLQESGPGLVKPSETLSLTCAVSGHSISHDHAWSWVRQPPGEGLEWIGFISYSGITNYNPSLQGRVTISRDNSKNTLYLQMNSLRAEDTAVYYCARSLARTTAMDYWGEGTLVTVSSAKTTPPSVYPLAPGSAAQTNSMVTLGCLVKGYFPEPVTVTWNSGSLSSGVHTFPAVLQSDLYTLSSSVTVPSSTWPSETVTCNVAHPASSTKVDKKIVPRDCGCKPCICTPNEEELVFIFPPKPKDVLTITLTPKVTCVVVDISKDDPEVQFSWFVDDVEVHTAQTQPREEQFNSTFRSVSELPIMHQDWLNGKEFKCRVNSAAFPAPIEKTISKTKGRPKAPQVYTIPPPKEQMAKDKVSLTCMITDFFPEDITVEWQWNGQPAENYKNTQPIMDTDGSYFVYSKLNVQKSNWEAGNTFTCSVLHEGLHNHHTEKSLSHSPGK
light: not shown
notes: copies: 2 + 2

The remaining lines, values behind:

B2: H237-MB477/L104-mk1 (antibody, mouse IgG1, kappa)
heavy: QVQLQESGPGLVKPSETLSLTCAVSGHSISHDHAWSWVRQPPGEGLEWIGFISYSGITNYNPSLQGRVTISRDNSKNTLYLQMNSLRAEDTAVYYCARSLARTTAMDYWGEGTLVTVSSAKTTPPSVYPLAPGSAAQTNSMVTLGCLVKGYFPEPVTVTWNSGSLSSGVHTFPAVLQSDLYTLSSSVTVPSSTWPSETVTCNVAHPASSTKVDKKIVPRDCGCKPCICEPNEVEDVFIFPPKPKDVLTITLTPKVTCVVVDIAKDDPEVQFSWFVDDVEVHTAQTQPREEQFNSTFRSVSELPIMHQDWLNGKEFKCRVNSAAFPAPIEKTISKTKGRPKAPQVYTIPPPKEQMAKDKVSLTCMITDFFPEDITVEWQWNGQPAENYKNTQPIMDTDGSYFVYSKLNVQKSNWEAGNTFTCSVLHEGLHNHHTEKSLSHSPGK
light: DIQMTQSPSSLSASVGDSVTITCQASTDISSHLNWYQQKPGKAPELLIYYGSHLLSGVPSRFSGSGSGTDFTFTISSLEAEDAATYYCGQGNRLPYTFGQGTKVEIERADAAPTVSIFPPSSEQLTSGGASVVCFLNNFYPKDINVKWKIDGSERQNGVLNSWTDQDSKDSTYSMSSTLTLTKDEYERHNSYTCEATHKTSTSPIVKSFNRNEC
notes: the text gives the rounded value for this form; copies: 2 + 2
- relative mFcγRII-binding activity (H237-mIgG1/L104-mk1 = 1) [5]: ~200 fold

B3: H237-MB880/MRAL-k0 (antibody, mouse IgG1, kappa)
heavy: QVQLQESGPGLVKPSETLSLTCAVSGHSISHDHAWSWVRQPPGEGLEWIGFISYSGITNYNPSLQGRVTISRDNSKNTLYLQMNSLRAEDTAVYYCARSLARTTAMDYWGEGTLVTVSSAKTTPPSVYPLAPGSAAQTNSMVTLGCLVKGYFPEPVTVTWNSGSLSSGVHTFPAVLQSDLYTLSSSVTVPSSTWPSETVTCNVAHPASSTKVDKKIVPRDCGCKPCICEVAEEELVFIFPPKPKDVLTITLTPKVTCVVVDISKDDPEVQFSWFVDDVEVHTAQTQPREEQFNSTFRSVSELPIMHQDWLNGKEFKCRVNSAAFPAPIEKTISKTKGRPKAPQVYTIPPPKEQMAKDKVSLTCMITDFFPEDITVEWQWNGQPAENYKNTQPIMDTDGSYFVYSKLNVQKSNWEAGNTFTCSVLHEGLHNHHTEKSLSHSPGK
light: not shown
notes: copies: 2 + 2
- relative mFcγRII-binding activity (mIgG1 = 1) [6]: 0.34 fold
- binding result [7]: no binding
